The values that follow come from the supplement of paper PMC9732359.

The nature of the series: protein stability index of a GFP-peptide fusion (yeast GPS) (PSI 1-4); higher = more stable; sorted into four equal gates, so the index is relative within each strain. Put shortly:
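Plasmids isolated from each sorting gate were PCR-amplified and Illumina-sequenced, and barcodes assigned the reads to strains. The gates, four of equal size, were set by GFP/Cherry fluorescence ratio on mid-log cultures in leucine-free medium. These cultures were yeast carrying a pooled library of tiled 17-residue yeast protein peptides fused downstream of GFP on a plasmid that also expresses Cherry. The protein stability index is the sum of every gate's read frequency times its gate number.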

± gives the uncertainty stated by the source.

With NGLGTSHINTNVGDNNS [ARP7], the protein stability index runs as follows: (doa10∆) 3.13 ± 0.12; (pdr5∆) 2.77 ± 0.099; (san1∆) 2.74 ± 0.082; (ubr1∆) 3.28 ± 0.11.

NGTVNNNSALSNVNSDI [RPT3] returned a protein stability index (doa10∆) of 2.91 ± 0.1, a protein stability index (pdr5∆) of 2.77 ± 0.067, a protein stability index (san1∆) of 1.81 ± 0.087 and a protein stability index (ubr1∆) of 2.15 ± 0.051.

NHVMYTEVSRKSMKYVK [ECM29] displayed a protein stability index (doa10∆) of 2.37 ± 0.055, a protein stability index (pdr5∆) of 2.61 ± 0.06, a protein stability index (san1∆) of 2.27 ± 0.078 and a protein stability index (ubr1∆) of 2.23 ± 0.039.

For the sequence NIAFDAHMSIGCLHKGK [YML031W/NDC1], the protein stability index by setting is: (doa10∆) 3.07 ± 0.15; (pdr5∆) 2.7 ± 0.089; (san1∆) 1.55 ± 0.15; (ubr1∆) 2.27 ± 0.086.

Regarding NIERKQTRKEYNTSILE [SIN4], the protein stability index (doa10∆) came to 3.11 ± 0.13, the protein stability index (pdr5∆) amounted to 2.94 ± 0.062, the protein stability index (san1∆) is 3.05 ± 0.081 and the protein stability index (ubr1∆) amounted to 3.23 ± 0.082.

Regarding NIFKAEMDSVSKSMKFS [CSN9], the protein stability index turned out to be 2.58 ± 0.065 (doa10∆), 2.58 ± 0.066 (pdr5∆), 2.71 ± 0.051 (san1∆) and 2.85 ± 0.044 (ubr1∆).

For the sequence NIIQAKRDAKAAGSYYV [RPL7A], the protein stability index is, setting by setting: (doa10∆) 3.39 ± 0.11; (pdr5∆) 3.24 ± 0.082; (san1∆) 3.11 ± 0.057; (ubr1∆) 2.64 ± 0.087.

As to NIKFLSKLEGTINKAVQ [ESC2], the protein stability index was determined as 2.86 ± 0.11 (doa10∆), 3.35 ± 0.14 (pdr5∆), 2.72 ± 0.1 (san1∆) and 2.91 ± 0.1 (ubr1∆).

On to NIKPVEQHHINNLKNSG [GAL11], for which the protein stability index was found to be 2.69 ± 0.062 (doa10∆), 2.59 ± 0.049 (pdr5∆), 2.36 ± 0.069 (san1∆) and 2.47 ± 0.041 (ubr1∆).

For NIMVTIDGCVKIGDLGL [SSN3], the protein stability index reads like this: (doa10∆) 3.27 ± 0.16; (pdr5∆) 3.12 ± 0.14; (san1∆) 3.5 ± 0.069; (ubr1∆) 3.43 ± 0.052.

Consider NISHLLEIASSIDCLLI [SWI1], for which the protein stability index is, setting by setting: (doa10∆) 2.21 ± 0.068; (pdr5∆) 2.16 ± 0.046; (san1∆) 2.29 ± 0.078; (ubr1∆) 2.04 ± 0.035.

Consider NISISTSELGNDDFSEV [BRR2], for which the protein stability index (doa10∆) was found to be 2.94 ± 0.12, the protein stability index (pdr5∆) came out at 3.19 ± 0.096, the protein stability index (san1∆) stood at 2.46 ± 0.078 and the protein stability index (ubr1∆) came to 3.12 ± 0.077.

Turning to NISNAKLANFFSKKGNE [YAR002W/NUP60], the protein stability index (doa10∆) is 2.83 ± 0.092, the protein stability index (pdr5∆) turned out to be 3.05 ± 0.062, the protein stability index (san1∆) was determined as 2.88 ± 0.07 and the protein stability index (ubr1∆) was determined as 2.33 ± 0.079.

Regarding NIVKLCFVHRYKDVSDL [IRR1], the protein stability index worked out at 2.68 ± 0.084 (doa10∆), 2.71 ± 0.059 (pdr5∆), 2.87 ± 0.055 (san1∆) and 2.89 ± 0.058 (ubr1∆).

On to NIVSDAGANDTSNNETN [GRR1], for which the protein stability index was found to be 2.79 ± 0.051 (doa10∆), 2.37 ± 0.2 (pdr5∆), 1.82 ± 0.15 (san1∆) and 2.71 ± 0.099 (ubr1∆).

Consider NKAQAKMDKRAKNSDSA [RPL8A], for which the protein stability index is 3.43 ± 0.094 (doa10∆), 3.38 ± 0.11 (pdr5∆), 3.27 ± 0.047 (san1∆) and 3.54 ± 0.067 (ubr1∆).

Consider NKAQAKMDKRAKTSDSA [RPL8B], for which the protein stability index is, setting by setting: (doa10∆) 3.34 ± 0.23; (pdr5∆) 3.02 ± 0.12; (san1∆) 3.27 ± 0.066; (ubr1∆) 3.31 ± 0.071.

With NKASLAQYEVLANYLTS [QCR2], the protein stability index runs as follows: (doa10∆) 2.42 ± 0.063; (pdr5∆) 2.41 ± 0.051; (san1∆) 2.5 ± 0.075; (ubr1∆) 2.64 ± 0.081.

Regarding NKGWKLQSLNESKDLLR [SRB4], the protein stability index is, setting by setting: (doa10∆) 2.81 ± 0.13; (pdr5∆) 2.57 ± 0.1; (san1∆) 2.32 ± 0.11; (ubr1∆) 2.93 ± 0.15.

Consider NKIIPNVGLCITIYDLL [RPC25], for which the protein stability index by setting is: (doa10∆) 1.43 ± 0.082; (pdr5∆) 1.29 ± 0.068; (san1∆) 1.29 ± 0.13; (ubr1∆) 1.5 ± 0.067.

As for NKKIYQWNKLTSFDIKR [POP6], the protein stability index is 2.93 ± 0.074 (doa10∆), 2.95 ± 0.079 (pdr5∆), 2.18 ± 0.2 (san1∆) and 3.03 ± 0.083 (ubr1∆).

For NKKLIKKLSKKYNAFIA [RPL1A], the protein stability index turned out to be 1.45 ± 0.048 (doa10∆), 1.94 ± 0.052 (pdr5∆), 1.45 ± 0.12 (san1∆) and 1.88 ± 0.049 (ubr1∆).

For the sequence NKLGALKTNFETEWNLQ [RPB11], the protein stability index came out at 2.68 ± 0.064 (doa10∆), 2.9 ± 0.077 (pdr5∆), 3.22 ± 0.12 (san1∆) and 2.95 ± 0.091 (ubr1∆).

Take NKNGNAVCSTATVVSTN [PGD1]: the protein stability index runs as follows: (doa10∆) 2.77 ± 0.059; (pdr5∆) 2.83 ± 0.061; (san1∆) 2.3 ± 0.073; (ubr1∆) 2.81 ± 0.053.

Consider NKTNNEDLFDDYPSTSL [NUT1], for which the protein stability index by setting is: (doa10∆) 2.22 ± 0.078; (pdr5∆) 3.09 ± 0.054; (san1∆) 2.85 ± 0.12; (ubr1∆) 1.79 ± 0.061.
